Tests used:
Experiment in all cases: peptide DELFIA ELISA;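 also: epitope mapping using overlapping 20-mer GUCY2C peptides covering residues 1-440, extracellular into transmembrane domain, coated at 20 µg/ml as target antigen and probed with antibodies or GUCY2C-CD3 bispecifics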
[1] = target: T1, GUCY2C_ECD Peptide 35 (human)
T1 peptide: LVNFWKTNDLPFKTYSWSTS
Description: (§1) Arrays were reconstituted with acetonitrile to 100 μg/ml and were then further diluted to 20 μg/ml with sodium carbonate/bicarbonate buffer. Purified antibodies or GUCY2c-CD3 bispecifics were then tested by Delfia ELISA for binding to the different peptides using Delfia ELISA methods previously discussed, with diluted peptides used as the target antigen.

[2] = target: T2, GUCY2C_ECD Peptide 73 (human)
T2 peptide: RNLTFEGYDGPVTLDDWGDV
Description: as §1

[3] = target: T3, GUCY2C_ECD Peptide 60 (human)
T3 peptide: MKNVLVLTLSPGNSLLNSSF
Description: as §1

[4] = target: T4, GUCY2C_ECD Peptide 59 (human)
T4 peptide: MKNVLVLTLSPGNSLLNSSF
Description: as §1

[5] = target: T5, GUCY2C_ECD Peptide 67 (human)
T5 peptide: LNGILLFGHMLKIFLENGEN
Description: as §1

[6] = target: T6, GUCY2C_ECD Peptide 56 (human)
T6 peptide: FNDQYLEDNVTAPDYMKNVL
Description: as §1

[7] = target: T7, GUCY2C_ECD Peptide 57 (human)
T7 peptide: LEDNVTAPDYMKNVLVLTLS
Description: as §1

[8] = target: T8, GUCY2C_ECD Peptide 18 (human)
T8 peptide: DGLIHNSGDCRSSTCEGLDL
Description: as §1

[9] = target: T9, GUCY2C_ECD Peptide 82 (human)
T9 peptide: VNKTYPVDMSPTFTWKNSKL
Description: as §1

[10] = target: T10, GUCY2C_ECD Peptide 50 (human)
T10 peptide: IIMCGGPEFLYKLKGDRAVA
Description: as §1

[11] = target: T11, GUCY2C_ECD Peptide 7 (human)
T11 peptide: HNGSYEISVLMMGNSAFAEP
Description: as §1

[12] = target: T12, GUCY2C_ECD Peptide 54 (human)
T12 peptide: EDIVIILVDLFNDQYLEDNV
Description: as §1

[13] = target: T13, GUCY2C_ECD Peptide 1 (human)
T13 peptide: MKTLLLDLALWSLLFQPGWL
Description: as §1

[14] = target: T14, GUCY2C_ECD Peptide 53 (human)
T14 peptide: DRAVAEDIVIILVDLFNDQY
Description: as §1

[15] = target: T15, GUCY2C_ECD Peptide 15 (human)
T15 peptide: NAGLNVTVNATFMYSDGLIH
Description: as §1

[16] = target: T16, GUCY2C_ECD Peptide 66 (human)
T16 peptide: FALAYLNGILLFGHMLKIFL
Description: as §1

[17] = target: T17, GUCY2C_ECD Peptide 65 (human)
T17 peptide: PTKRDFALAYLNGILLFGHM
Description: as §1

[18] = target: T18, GUCY2C_ECD Peptide 13 (human)
T18 peptide: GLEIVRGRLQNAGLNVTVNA
Description: as §1

[19] = target: T19, GUCY2C_ECD Peptide 28 (human)
T19 peptide: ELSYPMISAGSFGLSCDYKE
Description: as §1

[20] = target: T20, GUCY2C_ECD Peptide 23 (human)
T20 peptide: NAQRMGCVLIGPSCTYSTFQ
Description: as §1

[21] = target: T21, GUCY2C_ECD Peptide 72 (human)
T21 peptide: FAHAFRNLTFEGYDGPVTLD
Description: as §1

[22] = target: T22, GUCY2C_ECD Peptide 16 (human)
T22 peptide: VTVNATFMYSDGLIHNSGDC
Description: as §1

[23] = target: T23, GUCY2C_ECD Peptide 42 (human)
T23 peptide: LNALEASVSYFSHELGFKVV
Description: as §1

[24] = target: T24, GUCY2C_ECD Peptide 70 (human)
T24 peptide: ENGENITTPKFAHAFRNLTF
Description: as §1

[25] = target: T25, GUCY2C_ECD Peptide 31 (human)
T25 peptide: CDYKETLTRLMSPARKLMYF
Description: as §1

[26] = target: T26, GUCY2C_ECD Peptide 49 (human)
T26 peptide: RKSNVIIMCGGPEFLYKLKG
Description: as §1

[27] = target: T27, GUCY2C_ECD Peptide 5 (human)
T27 peptide: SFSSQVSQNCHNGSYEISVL
Description: as §1

[28] = target: T28, GUCY2C_ECD Peptide 14 (human)
T28 peptide: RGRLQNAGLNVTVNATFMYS
Description: as §1

[29] = target: T29, GUCY2C_ECD Peptide 11 (human)
T29 peptide: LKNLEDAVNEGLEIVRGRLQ
Description: as §1

[30] = target: T30, GUCY2C_ECD Peptide 33 (human)
T30 peptide: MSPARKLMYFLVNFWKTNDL
Description: as §1

[31] = target: T31, GUCY2C_ECD Peptide 58 (human)
T31 peptide: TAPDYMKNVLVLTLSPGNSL
Description: as §1

[32] = target: T32, GUCY2C_ECD Peptide 21 (human)
T32 peptide: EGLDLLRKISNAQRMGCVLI
Description: as §1

[33] = target: T33, GUCY2C_ECD Peptide 80 (human)
T33 peptide: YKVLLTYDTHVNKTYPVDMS
Description: as §1

[34] = target: T34, GUCY2C_ECD Peptide 38 (human)
T34 peptide: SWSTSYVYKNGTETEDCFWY
Description: as §1

[35] = target: T35, GUCY2C_ECD Peptide 68 (human)
T35 peptide: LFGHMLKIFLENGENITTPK
Description: as §1

[36] = target: T36, GUCY2C_ECD Peptide 87 (human)
T36 peptide: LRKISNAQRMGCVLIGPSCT
Description: as §1

B1: GUCY2C-1608 (bispecific antibody)
chain 1: DIQLTQSPSSLSASVGDRVTITCRASESVDYYGSSLLQWYQQKPGKAPKLLIYAASKLASGVPSRFSGSGSGTDFTLTISSLQPEDFATYYCQQTRKAYTFGQGTKLEIKGGGSGGGGEVQLVESGGGLVQPGGSLRLSCAASGFTFSDYYMTWVRQAPGKGLEWVAFIRNQARGYTSDHNPSVKGRFTISRDNAKNSLYLQMNSLRAEDTAVYYCARDRPSYYVLDYWGQGTTVTVSSGCPPCPAPEAAGAPSVFLFPPKPKDTLMISRTPEVTCVVVDVSHEDPEVKFNWYVDGVEVHNAKTKPREEQYNSTYRVVSVLTVLHQDWLNGKEYKCKVSNKALPAPIEKTISKAKGQPREPQVCTLPPSREEMTKNQVSLWCLVKGFYPSDIAVEWESNGQPENNYKTTPPVLDSDGSFFLYSKLTVDKSRWQQGNVFSCSVMHEALHNHYTQKSLSLSPG
chain 2: DIQMTQSPSSLSASVGDRVTITCTSSQSLFNVRSQKNYLAWYQQKPGKAPKLLIYWASTRESGVPSRFSGSGSGTDFTLTISSLQPEDFATYYCKQSYDLFTFGGGTKVEIKGGGGSGGGGEVQLVESGGGLVQPGGSLRLSCAASGFTFSSYWMHWVRQAPGKGLEWIGEIKPSNELTNVHEKFKDRFTISVDKAKNSAYLQMNSLRAEDTAVYYCTRTITTTEGYWFFDVWGQGTLVTVSSGCPPCPAPEAAGAPSVFLFPPKPKDTLMISRTPEVTCVVVDVSHEDPEVKFNWYVDGVEVHNAKTKPREEQYNSTYRVVSVLTVLHQDWLNGKEYKCKVSNKALPAPIEKTISKAKGQPREPQVYTLPPCREEMTKNQVSLSCAVKGFYPSDIAVEWESNGQPENNYKTTPPVLDSDGSFFLVSKLTVDKSRWQQGNVFSCSVMHEALHNHYTQKSLSLSPG
notes: also called GUCY2c CD3 bispecific
For B1, the “DELFIA TRF” value [1] was 108, the “DELFIA TRF” value [2] was 116 and the “DELFIA TRF” value [3] was 150. The “DELFIA TRF” value [4] was 135, the “DELFIA TRF” value [5] was 93.2 and the “DELFIA TRF” value [6] was 81. For the same binder, the “DELFIA TRF” value [7] was 99.8, the “DELFIA TRF” value [8] was 126 and the “DELFIA TRF” value [9] was 99.2. For the same binder, the “DELFIA TRF” value [10] was 161, the “DELFIA TRF” value [11] was 136 and the “DELFIA TRF” value [12] was 112. For the same binder, the “DELFIA TRF” value [13] was 166, the “DELFIA TRF” value [14] was 87.8 and the “DELFIA TRF” value [15] was 88.8. For the same binder, the “DELFIA TRF” value [16] was 114, the “DELFIA TRF” value [17] was 103 and the “DELFIA TRF” value [18] was 102. For the same binder, the “DELFIA TRF” value [19] was 96.8, the “DELFIA TRF” value [20] was 96.2 and the “DELFIA TRF” value [21] was 116. The “DELFIA TRF” value [22] was 105, the “DELFIA TRF” value [23] was 96.5 and the “DELFIA TRF” value [24] was 91.8. For the same binder, the “DELFIA TRF” value [25] was 90.2, the “DELFIA TRF” value [26] was 129 and the “DELFIA TRF” value [27] was 109. For the same binder, the “DELFIA TRF” value [28] was 97, the “DELFIA TRF” value [29] was 101 and the “DELFIA TRF” value [30] was 87.5. For the same binder, the “DELFIA TRF” value [31] was 98.5, the “DELFIA TRF” value [32] was 81 and the “DELFIA TRF” value [33] was 1470. For the same binder, the “DELFIA TRF” value [34] was 110, the “DELFIA TRF” value [35] was 73.5 and the “DELFIA TRF” value [36] was 102.
